# The star is where a group is joined. Biotin = O=C1N[C@H]2[C@H](CS[C@H]2CCCCC(=O)*)N1; Ahx = NCCCCCC(=O)O
# What was measured:
# [1] = system: IgG and IgA antibodies in sera from patients infected with GBS; assay: Peptide ELISA of FbsA peptides with human sera; format: binding; details: five sera, dilutions 1:200 and 1:1,000
# Source text: The 5 biotinylated peptides (wild type <1>: GNVLERRQRDAENRSQ SEQ ID No. 113; alanine mutant peptides: <2> GAVLERRQRDAENRSQ SEQ ID No. 207, <3> GNALERRQRDAENRSQ SEQ ID No. 208, <4> GNVLEARQRDAENRSQ SEQ ID No. 211, <5> GNVLERAQRDAENRSQ SEQ ID No. 212; see also FIG. 11) were coated on Streptavidin-coated ELISA plates and analysed using 5 sera from patients infected with GBS. The patient sera were applied in a dilution of 1:200 and 1:1,000. IgG (A) and IgA (B) antibodies were detected with secondary anti-human antibodies coupled to Horse Radish Peroxidase and ABTS as substrate.
# Biotin-labeled peptides were coating on Streptavidin ELISA plates (EXICON) at 10 μg/ml concentration according to the manufacturer's instructions. Sera were tested at two dilutions, 200× and 1,000×.
# Highly specific Horse Radish Peroxidase (HRP)-conjugated anti-human IgG or anti-human IgA secondary antibodies (Southern Biotech) were used according to the manufacturers' recommendations (dilution: 1,000×). Antigen-antibody complexes were quantified by measuring the conversion of the substrate (ABTS) to colored product based on OD405nm readings in an automated ELISA reader (TECAN SUNRISE). Following manual coating, peptide plates were processed and analyzed by the Gemini 160 ELISA robot (TECAN) with a built-in reader (GENIOS, TECAN).
# [2] = biological target: T1, human fibrinogen (Homo sapiens, UniProt P02671+P02675+P02679); assay: Western blot of fusion proteins for fibrinogen binding; details: His-tagged fusion proteins separated by SDS-PAGE, blotted, probed with human fibrinogen
# T1 construct: purchased Sigma-Aldrich
# T1 sequence (P02675 31-491): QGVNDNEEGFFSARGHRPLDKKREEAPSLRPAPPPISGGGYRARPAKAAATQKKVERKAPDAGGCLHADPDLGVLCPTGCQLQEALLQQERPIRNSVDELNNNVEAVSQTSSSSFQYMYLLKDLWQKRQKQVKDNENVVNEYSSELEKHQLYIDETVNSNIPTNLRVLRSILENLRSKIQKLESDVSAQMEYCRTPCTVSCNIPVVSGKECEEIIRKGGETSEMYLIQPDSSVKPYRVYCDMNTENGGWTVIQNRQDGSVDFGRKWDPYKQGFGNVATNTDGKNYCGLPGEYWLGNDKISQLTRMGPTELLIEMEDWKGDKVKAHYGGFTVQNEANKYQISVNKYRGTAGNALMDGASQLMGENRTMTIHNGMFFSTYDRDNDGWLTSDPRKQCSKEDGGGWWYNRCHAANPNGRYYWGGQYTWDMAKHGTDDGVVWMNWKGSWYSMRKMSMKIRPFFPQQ
# T1 sequence (P02679 27-433): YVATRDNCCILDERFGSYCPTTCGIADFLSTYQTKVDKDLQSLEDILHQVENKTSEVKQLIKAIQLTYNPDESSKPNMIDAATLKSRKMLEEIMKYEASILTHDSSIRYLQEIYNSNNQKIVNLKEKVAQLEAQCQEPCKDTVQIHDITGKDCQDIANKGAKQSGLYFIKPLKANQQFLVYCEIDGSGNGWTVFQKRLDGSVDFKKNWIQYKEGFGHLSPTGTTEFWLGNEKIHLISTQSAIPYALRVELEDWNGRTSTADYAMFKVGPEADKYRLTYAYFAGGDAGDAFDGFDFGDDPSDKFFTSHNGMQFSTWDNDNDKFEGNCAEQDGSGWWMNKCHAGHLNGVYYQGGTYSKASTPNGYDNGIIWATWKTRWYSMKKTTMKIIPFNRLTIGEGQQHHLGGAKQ
# T1 sequence (P02671 20-629): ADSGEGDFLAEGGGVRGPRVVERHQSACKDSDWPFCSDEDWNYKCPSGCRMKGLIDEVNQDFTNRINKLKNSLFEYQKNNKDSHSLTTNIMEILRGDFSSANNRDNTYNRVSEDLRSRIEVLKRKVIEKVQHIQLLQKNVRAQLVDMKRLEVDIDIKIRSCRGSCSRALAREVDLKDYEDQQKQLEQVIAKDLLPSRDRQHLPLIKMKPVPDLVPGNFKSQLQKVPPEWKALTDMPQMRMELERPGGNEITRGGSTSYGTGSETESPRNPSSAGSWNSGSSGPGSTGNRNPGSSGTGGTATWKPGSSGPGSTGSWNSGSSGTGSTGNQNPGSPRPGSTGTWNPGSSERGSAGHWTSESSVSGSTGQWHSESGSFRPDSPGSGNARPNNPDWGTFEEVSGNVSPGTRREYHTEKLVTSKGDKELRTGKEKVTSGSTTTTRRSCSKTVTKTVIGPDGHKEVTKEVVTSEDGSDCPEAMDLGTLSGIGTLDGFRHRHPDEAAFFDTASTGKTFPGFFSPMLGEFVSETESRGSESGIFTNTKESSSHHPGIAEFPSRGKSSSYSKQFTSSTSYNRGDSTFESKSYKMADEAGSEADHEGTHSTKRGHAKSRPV
# Source text: The fibrinogen binding activity of the three proteins encoded by different constructs are indicated below the schematic FbsA drawing.
# The fusion proteins were size-separated by SDS-PAGE, transferred onto a nitrocellulose membrane and tested for fibrinogen binding by Western blotting. Bound fibrinogen was detected with rabbit anti-fibrinogen antibodies, followed by peroxidase-labelled goat anti-rabbit antibodies, and visualized by chemiluminescence. PabC and Gbs0851: full-length fusion proteins; PabC-N: N-terminal 388 amino acids of PabC; PabC-C: C-terminal 222 amino acids of PabC. (C) Identification of the FbsA and PabC-binding sites within human fibrinogen by Western blot analysis. […] Bound fusion proteins were detected with mouse anti-HisTag antibodies, followed by peroxidase-conjugated goat anti-mouse IgG fab fragments and visualized by chemiluminescence. […]
# Membranes that had been blocked overnight were incubated for 1 h with 2 μg/ml of human fibrinogen. […] After three washes with PBST and two washes with PBS, bound fibrinogen was detected by chemiluminescence using the ECL-kit (Amersham/Pharmacia). In control experiments, no cross-reactivity of the used antibodies with the immobilized proteins and peptides was detected.
# [3] = system: A549 cells; assay: Epithelial cell adherence and internalization assay of GBS 6313 in presence of proteins; format: cell-based, human; details: pre-treatment of A549 cells with increasing amounts of protein
# Protocol: The adherence of GBS 6313 to A549 cells (A) and its internalization into these cells (B) was arbitrarily set to 100% and the results obtained in the presence of the different fusion proteins was related to these values. Each experiment was performed at least three times in triplicate.
# Adherence of GBS to epithelial cells and internalization into epithelial cells was assayed essentially as described previously (Caparon et al., 1991; Rubens et al. 1992). Briefly, A549 cells were transferred to 24-well tissue culture plates at approximately 4×10^5 cells per well and cultivated overnight in RPMI (Gibco BRL) tissue culture medium, supplemented with 10% of fetal calf serum. After replacement of the medium with 1 ml of fresh medium, the cells were infected with 5×10^6 streptococci per well and incubated at 37° C. for 2 h. The non-adherent bacteria were removed by washing three times with PBS. In adherence assays, the epithelial cells were subsequently detached from the well by the addition of trypsin/EDTA and lysed by adding 300 μl of distilled water. Adherent bacteria were quantitated by plating serial dilutions of the lysate onto THY agar plates. For internalization assays the epithelial cells were incubated after 2 h of infection for another 2 h in tissue culture medium supplemented with penicilling G (10 U) and streptomycin (0.01 mg) to kill extracellular bacteria. After three washes with PBS, the epithelial cells were detached by the addition of trypsin/EDTA and lysed in 300 μl of distilled water. The amount of intracellular bacteria was quantified by plating serial dilutions of the lysate onto THY agar plates. Each experiment was repeated at least three times in triplicate. […]
# Adherence of S. agalactiae to A549 and HEL299 cells and internalization into these cells was assayed essentially as described in Example 1 for A549 cells. In some experiments, A549 cells were preincubated with different amounts of FbsA protein or FbsA-derived peptides in RPMI medium for 30 min with three subsequent washes with PBS.
# [4] = system: A549 cells; assay: Interaction of protein-coated latex beads with A549 cells (scanning electron microscopy); format: cell-based, human
# Protocol: BSA-coated latex beads were used as a control.
# Latex beads were either coated with BSA (A) or FbsA fusion protein (B-D) and the interaction of the coated beads with the lung epithelial cell line A549 was analyzed by scanning electron microscopy.
# Approximately […] latex beads (3 μm diameter, Sigma) were washed tree times in PBS and then coated with 300 μg of fusion protein or BSA in 500 μl PBS overnight at 4° C. Coated beads were washed once in PBS and then blocked with 200 μl of 10 mg/ml BSA in PBS for 1 h at room temperature. Beads were washed twice in PBS and once in RPMI+10% FCS and then resupended in 1 ml of RPMI+10% FCS. 300 μl of beads were added to approximately 4×10^5 A549 cells in 24-well plates. The cells were incubated for 1 h at 37° C. (5% CO2), washed five times with PBS and fixed in a solution containing 3% glutaraldehyde and 5% formaldehyde in cacodylate bluffer for 45 min on ice. The samples were washed with cacodylate buffer, dehydrated in a graded series of acetone and subjected to critical point drying with CO2. Samples were then coated with a 10 nm thick gold film and examined by scanning electron microscopy as described previously (Reinscheid et al., 2001a).
# Approximately 1×10^9 latex beads (3 μm diameter, Sigma) were washed three times in 25 mM 2-N-morpholinoethanesulfonic acid (MES), pH 6.8. One half was resuspended in 1.0 ml MES buffer containing 500 μg/ml FbsA fusion protein and the remaining half was resuspended in 1.0 ml MES buffer. The beads were incubated overnight at 4° C. with end-over-end rotation. After pelleting of the beads by centrifugation, the amount of remaining protein in the supernatant was determined with a Bradford protein assay kit (BioRad). The beads were washed once with MES buffer and blocked for 1 h with 10 mg/ml BSA in MES buffer at room temperature. The beads were washed twice with MES buffer, once with RPMI+10% FCS, and resuspended in RPMI+10% FCS. Confluent A549 cells in 24-well plates were inoculated with 2×10^8 beads per well in a total volume of 1.0 ml. The bead monolayer mixtures were incubated for 2 h at 37° C. in a 5% CO2 atmosphere. Cells were washed five times with PBS and fixed with 3% paraformaldehyde and 4% glutaraldehyde in […] cacodylate buffer for scanning electron microscopy. Scanning electron microscopy was performed with a Zeiss DSM 962 microscope.
# [5] = system: GBS 6313; assay: Competitive inhibition of 125I-labelled fibrinogen binding to GBS; design: species or system Streptococcus agalactiae; details: increasing concentrations of purified fusion protein
# Protocol: FbsA-9 differs from FbsA-19 in that it contains only 9 repeats in its repeat domain. The binding assay was performed with ^125I-labelled fibrinogen in the presence of different concentrations of each fusion protein. Each experiment was performed at least in triplicate.
# Each experiment was performed at least in triplicate.
# Purified human fibrinogen was radiolabelled with ^125I, using the chloramin T method (Hunter and Greenwood, 1962). Binding of labelled fibrinogen to GBS was performed essentially as described by Chhatwal et al. (Chhatwal, Muller, and Blobel, 1983). Briefly, overnight cultures of GBS were pelleted by centrifugation, washed twice with phosphate-buffered saline supplemented with 0.02% Tween 20 (PBST) and adjusted photometrically to a transmission of 10% at 600 nm. A total of 0.2 ml of the bacterial suspension was added to 20 μl of ^125I-labelled fibrinogen containing 23 ng of fibrinogen. After incubation for 1 h at room temperature, the streptococci were sedimented by centrifugation and washed with 1 ml of PBST. The radioactivity of the pellet was finally measured in a gamma counter (Packard Instruments). The amount of bacterial-bound fibrinogen was calculated as the percentage of total radiolabelled fibrinogen added to the bacteria. In inhibition experiments, the binding of 23 ng of radiolabelled fibrinogen to 0.2 ml of GBS (T=10%) was determined in the presence of various amounts of FbsA fusion proteins, Bsp fusion protein or synthetic peptides. Each experiment was repeated at least three times in triplicate.
Molecule,reactivity of biotinylated peptides with IgA and IgG antibodies of patient sera [1],fibrinogen binding in Western blot [2],adherence of S. agalactiae 6313 to A549 cells after pre-treatment of the cells [3],invasion of A549 cells by S. agalactiae 6313 after pre-treatment of the cells [3],binding of protein-coated latex beads to A549 cells [4],internalization of protein-coated latex beads into A549 cells [4],inhibition of binding of 125I-labelled fibrinogen to GBS 6313 [5]
GNVLERAQRDAENRSQ ({Biotin-Ahx}-GNVLERAQRDAENRSQ-NH2; SMILES CC(C)C[C@H](NC(=O)[C@@H](NC(=O)[C@H](CC(N)=O)NC(=O)CNC(=O)CCCCCNC(=O)CCCC[C@@H]1SC[C@@H]2NC(=O)N[C@@H]21)C(C)C)C(=O)N[C@@H](CCC(=O)O)C(=O)N[C@@H](CCCNC(=N)N)C(=O)N[C@@H](C)C(=O)N[C@@H](CCC(N)=O)C(=O)N[C@@H](CCCNC(=N)N)C(=O)N[C@@H](CC(=O)O)C(=O)N[C@@H](C)C(=O)N[C@@H](CCC(=O)O)C(=O)N[C@@H](CC(N)=O)C(=O)N[C@@H](CCCNC(=N)N)C(=O)N[C@@H](CO)C(=O)N[C@@H](CCC(N)=O)C(N)=O) [peptide 5],less well recognized by all sera,,,,,,
GNVLERRQRDAENRSQ ({Biotin-Ahx}-GNVLERRQRDAENRSQ-NH2; SMILES CC(C)C[C@H](NC(=O)[C@@H](NC(=O)[C@H](CC(N)=O)NC(=O)CNC(=O)CCCCCNC(=O)CCCC[C@@H]1SC[C@@H]2NC(=O)N[C@@H]21)C(C)C)C(=O)N[C@@H](CCC(=O)O)C(=O)N[C@@H](CCCNC(=N)N)C(=O)N[C@@H](CCCNC(=N)N)C(=O)N[C@@H](CCC(N)=O)C(=O)N[C@@H](CCCNC(=N)N)C(=O)N[C@@H](CC(=O)O)C(=O)N[C@@H](C)C(=O)N[C@@H](CCC(=O)O)C(=O)N[C@@H](CC(N)=O)C(=O)N[C@@H](CCCNC(=N)N)C(=O)N[C@@H](CO)C(=O)N[C@@H](CCC(N)=O)C(N)=O; listed as Streptococcus agalactiae) [wild type peptide],less well recognized by all sera,,,,,,
"FbsA-19: hexahistidyl-tagged FbsA protein from S. agalactiae 6313 with 19 repeats, devoid of signal peptide and membrane-spanning region (protein, left off: small tags and cut ends, hexahistidyl-tagged FbsA protein from S. agalactiae 6313 with 19 repeats, devoid of signal peptide and membrane-spanning region) MDSVGNQSQGNVLERRQRDAENRSQGNVLERRQRDVENKSQGNVLERRQRDAENKSQGNVLERRQRDAENRSQGNVLERRQRDAENRSQGNVLERRQRDAENRSQGNVLERRQRDAENRSQGNVLERRQRDAENRSQGNVLERRQRDVENKSQGNVLERRQRDAENKSQGNVLERRQRDAENRSQGNVLERRQRDAENRSQGNVLERRQRDAENRSQGNVLERRQRDAENRSQGNVLERRQRDAENRSQGNVLERRQRDAENRSQGNVLERRQRDAENRSQGNVLERRQRDAENRSQGNVLERRQRDAENKSQVGQLIGKNPLLSKSIISRENNHSSQGDSNKQSFSKKVSQVTNVANRPMLTNNSRTISVINKLPKTGDDQNV",,binding to human fibrinogen,substantially inhibited,substantially inhibited,in high numbers,observed rather rarely,substantially inhibited

# Source: patent US7485710B2, “Nucleic acids coding for adhesion factor of group B streptococcus, adhesion factors of group B streptococcus and further uses thereof” (priority 2002, dated 2009)
